Source: patent US20190175730A1 (Five Prime, published 2019)

B1: afucosylated monoclonal antibody αFGFR2bA (antibody, human IgG1, kappa)
heavy: not shown
light: DIQMTQSPSSLSASVGDRVTITCKASQGVSNDVAWYQQKPGKAPKLLIYSASYRYTGVPSRFSGSGSGTDFTFTISSLQPEDIATYYCQQHSTTPYTFGQGTKLEIKRTVAAPSVFIFPPSDEQLKSGTASVVCLLNNFYPREAKVQWKVDNALQSGNSQESVTEQDSKDSTYSLSSTLTLSKADYEKHKVYACEVTHQGLSSPVTKSFNRGEC
modifications: Asn297 glycan lacks fucose (afucosylated; produced in FUT8-lacking Potelligent CHOK1SV cells)
B2: fucosylated monoclonal antibody αFGFR2bF (antibody, human IgG1, kappa)
heavy: not shown
light: B1 light
modifications: Asn297 glycan contains fucose (fucosylated)

Target: T1, human FGFR2IIIb expressed on Ba/F3 cells (human, UniProt P21802 22-821)
T1 chain: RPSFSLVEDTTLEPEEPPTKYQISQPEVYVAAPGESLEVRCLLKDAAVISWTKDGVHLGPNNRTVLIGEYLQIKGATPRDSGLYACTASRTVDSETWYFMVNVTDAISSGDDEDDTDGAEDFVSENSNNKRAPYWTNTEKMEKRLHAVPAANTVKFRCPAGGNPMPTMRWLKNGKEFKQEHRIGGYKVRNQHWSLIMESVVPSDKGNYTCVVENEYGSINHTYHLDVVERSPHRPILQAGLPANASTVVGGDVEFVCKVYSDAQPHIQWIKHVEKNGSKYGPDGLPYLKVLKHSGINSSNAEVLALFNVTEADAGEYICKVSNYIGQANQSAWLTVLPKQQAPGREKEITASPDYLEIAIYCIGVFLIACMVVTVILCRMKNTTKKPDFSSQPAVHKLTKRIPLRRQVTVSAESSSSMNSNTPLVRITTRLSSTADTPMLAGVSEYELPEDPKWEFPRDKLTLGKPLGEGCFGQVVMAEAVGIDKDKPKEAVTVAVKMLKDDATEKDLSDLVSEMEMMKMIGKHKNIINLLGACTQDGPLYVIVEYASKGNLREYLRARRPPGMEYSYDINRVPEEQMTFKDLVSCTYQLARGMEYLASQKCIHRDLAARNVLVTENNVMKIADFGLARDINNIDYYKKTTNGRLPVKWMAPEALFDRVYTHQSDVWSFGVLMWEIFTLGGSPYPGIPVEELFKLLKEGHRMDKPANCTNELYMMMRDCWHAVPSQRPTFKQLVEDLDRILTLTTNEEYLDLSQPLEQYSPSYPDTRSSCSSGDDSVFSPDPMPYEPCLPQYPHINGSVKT
Test: cell-based or functional assay

| Binder | EC50 (ng/mL) of ADCC, LDH release |
| --- | --- |
| B1 | 2 ng/mL |
| B2 | 16 ng/mL |
